Data reported in article PMC7688916 (2020).
Where two headings read alike, the source gives them in different places. Each block holds one molecule with its values, some of them ahead of it.

What was measured:
Experiment in all cases: split reporter (BiFC, NanoBiT); split-GFP (mGFP2 split between residues 157 and 158) in Hfx. volcanii transformants in vivo; eight combinations of fusions a pair, highest relative fluorescence (rf) given; cells in basal salts (3 M NaCl, 150 mM MgSO4, 50 mM KCl) at OD600 1; rf > 5 clear interaction, rf < 1 no interaction
[1] = target: GvpL fused to NGFP or CGFP (split-GFP) (Halobacterium salinarum PHH1)
[2] = target: GvpF fused to NGFP or CGFP (split-GFP) (Halobacterium salinarum PHH1)
[3] = target: GvpG fused to NGFP or CGFP (split-GFP) (Halobacterium salinarum PHH1)
[4] = target: GvpI fused to NGFP or CGFP (split-GFP) (Halobacterium salinarum PHH1)
[5] = target: GvpF fused to NGFP or CGFP (split-GFP) (Halobacterium salinarum PHH1); remark: listed apart in the source
[6] = target: GvpL fused to NGFP or CGFP (split-GFP) (Halobacterium salinarum PHH1); remark: listed apart in the source
[7] = target: GvpH fused to NGFP or CGFP (split-GFP) (Halobacterium salinarum PHH1)
[8] = target: GvpM fused to NGFP or CGFP (split-GFP) (Halobacterium salinarum PHH1)
[9] = target: GvpK fused to NGFP or CGFP (split-GFP) (Halobacterium salinarum PHH1)
[10] = target: GvpI fused to NGFP or CGFP (split-GFP) (Halobacterium salinarum PHH1); remark: listed apart in the source
[11] = target: GvpG fused to NGFP or CGFP (split-GFP) (Halobacterium salinarum PHH1); remark: listed apart in the source
[12] = target: GvpJ fused to NGFP or CGFP (split-GFP) (Halobacterium salinarum PHH1)

Sequence of GvpF fused to NGFP or CGFP (split-GFP) (Halobacterium salinarum PHH1) (P24370 whole entry, the tested form may be a part): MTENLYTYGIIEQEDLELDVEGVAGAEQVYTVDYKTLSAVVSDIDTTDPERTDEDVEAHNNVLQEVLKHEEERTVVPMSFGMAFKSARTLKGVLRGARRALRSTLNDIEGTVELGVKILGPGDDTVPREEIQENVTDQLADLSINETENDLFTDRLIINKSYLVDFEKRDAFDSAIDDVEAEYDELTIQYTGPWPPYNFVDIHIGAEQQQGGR
Sequence of GvpL fused to NGFP or CGFP (split-GFP) (Halobacterium salinarum PHH1) (Q9HI27 whole entry, the tested form may be a part): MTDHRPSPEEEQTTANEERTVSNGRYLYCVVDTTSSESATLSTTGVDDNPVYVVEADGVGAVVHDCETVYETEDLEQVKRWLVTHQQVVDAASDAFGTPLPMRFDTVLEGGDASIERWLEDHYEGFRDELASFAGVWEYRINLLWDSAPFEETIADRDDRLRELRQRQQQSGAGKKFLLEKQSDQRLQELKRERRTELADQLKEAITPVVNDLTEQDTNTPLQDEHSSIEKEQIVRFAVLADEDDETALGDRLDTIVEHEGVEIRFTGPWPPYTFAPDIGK
Sequence of GvpG fused to NGFP or CGFP (split-GFP) (Halobacterium salinarum PHH1) (P24371 whole entry, the tested form may be a part): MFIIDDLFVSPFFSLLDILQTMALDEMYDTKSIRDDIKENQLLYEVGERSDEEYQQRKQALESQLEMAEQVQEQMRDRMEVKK

Molecule: GvpI fused to NGFP or CGFP (split-GFP) (natural protein)
highest relative fluorescence (rf) [1]: 13.7 rf | highest relative fluorescence (rf) [2]: 6.3 rf

Molecule: GvpK fused to NGFP or CGFP (split-GFP) (natural protein)
highest relative fluorescence (rf) [1]: 7.4 rf

Molecule: GvpF fused to NGFP or CGFP (split-GFP) (natural protein)
highest relative fluorescence (rf) [1]: 16.6 rf | relative fluorescence (rf) [2]: 1.5 rf

Molecule: GvpG fused to NGFP or CGFP (split-GFP) (natural protein)
highest relative fluorescence (rf) [1]: 77.5 rf | relative fluorescence (rf) [3]: 3.5 rf | highest relative fluorescence (rf) [2]: 5 rf

Molecule: GvpH fused to NGFP or CGFP (split-GFP) (natural protein)
highest relative fluorescence (rf) [1]: 11.4 rf | highest relative fluorescence (rf) [4]: 20 rf | highest relative fluorescence (rf) [2]: 6.3 rf

B1: GvpA fused to NGFP or CGFP (split-GFP) (natural protein)
chain: MAQPDSSGLAEVLDRVLDKGVVVDVWARVSLVGIEILTVEARVVAASVDTFLHYAEEIAKIEQAELTAGAEAAPEA
highest relative fluorescence (rf) [6]: < 1 rf | highest relative fluorescence (rf) [7]: < 1 rf | highest relative fluorescence (rf) [8]: < 1 rf | highest relative fluorescence (rf) [9]: < 1 rf | highest relative fluorescence (rf) [10]: < 1 rf | highest relative fluorescence (rf) [11]: < 1 rf | highest relative fluorescence (rf) [12]: < 1 rf | highest relative fluorescence (rf) [5]: 20 rf | relative fluorescence (rf) [5]: 15 to 18 rf

B3: GvpA D24A (split-GFP fusion) (natural protein)
chain: MAQPDSSGLAEVLDRVLDKGVVVAVWARVSLVGIEILTVEARVVAASVDTFLHYAEEIAKIEQAELTAGAEAAPEA
relative fluorescence (rf) [5]: < 6 rf

Molecule: VAASVDTFLHYAEEIAKIEQAELTAGAEAAPEA (domain or fragment) [GvpA fragment A44-76 fused to NGFP or CGFP (split-GFP)]
highest relative fluorescence (rf) [5]: < 1 rf

Further lines, results first:

highest relative fluorescence (rf) [5]: 41 rf
Molecule: MAQPDSSGLAEVLDRVLDKGVV (domain or fragment) [GvpA fragment A1-22 fused to NGFP or CGFP (split-GFP)]

relative fluorescence (rf) [5]: < 6 rf
B2: GvpA R28A (split-GFP fusion) (natural protein)
chain: MAQPDSSGLAEVLDRVLDKGVVVDVWAAVSLVGIEILTVEARVVAASVDTFLHYAEEIAKIEQAELTAGAEAAPEA

relative fluorescence (rf) [5]: < 6 rf
B4: GvpA E40A (split-GFP fusion) (natural protein)
chain: MAQPDSSGLAEVLDRVLDKGVVVDVWARVSLVGIEILTVAARVVAASVDTFLHYAEEIAKIEQAELTAGAEAAPEA

relative fluorescence (rf) [5]: < 6 rf
B5: GvpA R28D (split-GFP fusion) (natural protein)
chain: MAQPDSSGLAEVLDRVLDKGVVVDVWADVSLVGIEILTVEARVVAASVDTFLHYAEEIAKIEQAELTAGAEAAPEA

relative fluorescence (rf) [5]: < 6 rf
B6: GvpA D24Y (split-GFP fusion) (natural protein)
chain: MAQPDSSGLAEVLDRVLDKGVVVYVWARVSLVGIEILTVEARVVAASVDTFLHYAEEIAKIEQAELTAGAEAAPEA

relative fluorescence (rf) [5]: < 6 rf
B7: GvpA G20D (split-GFP fusion) (natural protein)
chain: MAQPDSSGLAEVLDRVLDKDVVVDVWARVSLVGIEILTVEARVVAASVDTFLHYAEEIAKIEQAELTAGAEAAPEA

relative fluorescence (rf) [5]: < 6 rf
B8: GvpA G20A (split-GFP fusion) (natural protein)
chain: MAQPDSSGLAEVLDRVLDKAVVVDVWARVSLVGIEILTVEARVVAASVDTFLHYAEEIAKIEQAELTAGAEAAPEA

highest relative fluorescence (rf) [5]: < 1 rf
Molecule: GVVVDVWARVSLVGIEILTVEARVVAAS (domain or fragment) [GvpA fragment A20-47 fused to NGFP or CGFP (split-GFP)]
